*1 amine or outer side, *2 acyl side, *3 side chain or, on linkers, in order; H or OH if unused. Bridges are numbered along the chain shown (N, C = ends). Where no end group is shown, it is not given here. TBMB = c1c(C[*:1])cc(C[*:3])cc1C[*:2]
Experiments:
[1] = molecular target: T1, human carbonic anhydrase IX (CAIX) (human, UniProt Q16790 38-414); assay: competition fluorescence polarisation, tracer A-(SEQ ID NO:1)-A-Sar6-K(FI); n = 1
[2] = molecular target: T1, human carbonic anhydrase IX (CAIX); assay: competition fluorescence polarisation, tracer A-(SEQ ID NO:1)-A-Sar6-K(FI)
[3] = molecular target: T1, human carbonic anhydrase IX (CAIX); assay: cell-based or functional assay

Ki [1] | Ki [2] | Enzyme IC50 [3] | Binder
5.6 nM |  |  | ACRECWVDGWVECA (linker 2-5-13 via TBMB, Bicyclic peptide on TBMB scaffold) [61-01-08-N001]
312 nM |  |  | ACWWCEDITGRPCA (linker 2-5-13 via TBMB, Bicyclic peptide on TBMB scaffold) [61-18-N001]
39.8 nM |  |  | ACGECWVDGWVSCA (linker 2-5-13 via TBMB, Bicyclic peptide on TBMB scaffold) [61-01-09-N001]
 | 7.9 nM |  | ACTECWIDGWVPCA (linker 2-5-13 via TBMB, Bicyclic peptide on TBMB scaffold) [61-01-07-N001]

More lines, now with the values behind:

Binder | Ki [1] | Ki [2] | Enzyme IC50 [3]
ACSECWVDGWVSCA (linker 2-5-13 via TBMB, Bicyclic peptide on TBMB scaffold) [61-01-03-N001] |  | 22.7 nM | 
ACGECWADGWVPCA (linker 2-5-13 via TBMB, Bicyclic peptide on TBMB scaffold) [61-01-01-N001] |  | 81.5 nM | 
ACTECWVDGWVPCA (linker 2-5-13 via TBMB, Bicyclic peptide on TBMB scaffold) [61-01-02-N001] |  | 7.13 nM | 815 nM
ACLECWVDGWVPCA (linker 2-5-13 via TBMB, Bicyclic peptide on TBMB scaffold) [61-01-04-N001] |  | 5.77 nM | 855 nM
ACEECWVDGWVPCA (linker 2-5-13 via TBMB, Bicyclic peptide on TBMB scaffold) [61-01-05-N001] | 12.2 nM |  | 

Source: patent publication US20220133732A1 (Bicycle, published 2022)
